Patent US20200377556A1 (ABERA BIOSCIENCE, published 2020)

B1: GFPnanobody-SpyCatcher (VHH)
VHH: QLVESGGALVQPGGSLRLSCAASGFPVNRYSMRWYRQAPGKEREWVAGMSSAGDRSSYEDSVKGRFTISRDDARNTVYLQMNSLKPEDTAVYYCNVNVGFEYWGQGTQVTVSS
notes: also called GFPnb-SpC; GFPnanobody-SpC
B2: GFPnanobody-SpC_EQ (VHH)
VHH: B1 VHH
notes: also called GFPnb-SpC EQ; GFPnb fused to SpyCatcher E77Q mutant

Tests used:
HbpD(Δd1)-SpT [1] = target: T1, HbpD(Δd1)-SpT (Escherichia coli, UniProt O88093 53-1377); test: covalent Spy-ligation to S. Typhimurium cells, SDS-PAGE/Coomassie
T1 construct: also called HbpD(Δd1)-SpyTag; Hbp(Δd1)-SpT

HbpD(Δd1)-SpT [2] = target: T1, HbpD(Δd1)-SpT; test: SDS-PAGE/Coomassie of S. Typhimurium cells displaying HbpD(Δd1)-SpT incubated with GFPnb-SpC EQ

Binder	binding result (HbpD(Δd1)-SpT [1])	binding result (HbpD(Δd1)-SpT [2])
B1	binds	–
B2	–	no binding (tested: 3 µM)
